Laboratory results taken from publication PMC4837482, “The complex binding mode of the peptide hormone H2 relaxin to its receptor RXFP1” (Nature Communications, 2016).

Tests used:
RXFP1 F54A = molecular target: T1, RXFP1 F54A (Homo sapiens, UniProt Q9HBX9, F76A); assay: Eu-H2 relaxin saturation binding assay, transfected HEK293T cells; settings: F54A-RXFP1 versus wild-type RXFP1
T1 construct: cells expressing full-length RXFP1 and mutants; expressed in transfected cells; host or cells: HEK293T
T1 sequence (Q9HBX9 23-757 F76A limits assumed): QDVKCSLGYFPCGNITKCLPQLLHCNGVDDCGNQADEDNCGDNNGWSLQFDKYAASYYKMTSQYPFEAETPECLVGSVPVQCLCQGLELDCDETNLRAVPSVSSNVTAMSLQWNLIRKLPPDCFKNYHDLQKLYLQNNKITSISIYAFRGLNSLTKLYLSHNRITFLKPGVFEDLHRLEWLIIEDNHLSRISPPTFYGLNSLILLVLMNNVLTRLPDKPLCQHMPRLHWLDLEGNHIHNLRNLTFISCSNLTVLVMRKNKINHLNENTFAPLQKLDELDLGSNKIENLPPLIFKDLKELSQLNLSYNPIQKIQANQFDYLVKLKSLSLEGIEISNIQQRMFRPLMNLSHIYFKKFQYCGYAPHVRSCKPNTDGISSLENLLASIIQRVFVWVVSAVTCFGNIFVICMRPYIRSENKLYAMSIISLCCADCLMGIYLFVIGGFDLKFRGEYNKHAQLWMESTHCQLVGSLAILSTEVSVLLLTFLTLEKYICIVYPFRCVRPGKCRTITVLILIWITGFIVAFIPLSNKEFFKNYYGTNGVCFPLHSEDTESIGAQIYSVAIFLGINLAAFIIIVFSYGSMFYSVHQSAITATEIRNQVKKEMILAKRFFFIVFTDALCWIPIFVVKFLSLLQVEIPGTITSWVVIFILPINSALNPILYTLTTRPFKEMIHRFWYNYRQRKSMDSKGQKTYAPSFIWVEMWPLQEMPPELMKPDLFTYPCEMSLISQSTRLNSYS

[1] = molecular target: RXFP1 A55L, full length (human)
[2] = molecular target: RXFP1 A55S, full length (human)
[3] = molecular target: T2, RXFP1 A68^Δ, full length (human) (UniProt Q9HBX9)
T2 sequence: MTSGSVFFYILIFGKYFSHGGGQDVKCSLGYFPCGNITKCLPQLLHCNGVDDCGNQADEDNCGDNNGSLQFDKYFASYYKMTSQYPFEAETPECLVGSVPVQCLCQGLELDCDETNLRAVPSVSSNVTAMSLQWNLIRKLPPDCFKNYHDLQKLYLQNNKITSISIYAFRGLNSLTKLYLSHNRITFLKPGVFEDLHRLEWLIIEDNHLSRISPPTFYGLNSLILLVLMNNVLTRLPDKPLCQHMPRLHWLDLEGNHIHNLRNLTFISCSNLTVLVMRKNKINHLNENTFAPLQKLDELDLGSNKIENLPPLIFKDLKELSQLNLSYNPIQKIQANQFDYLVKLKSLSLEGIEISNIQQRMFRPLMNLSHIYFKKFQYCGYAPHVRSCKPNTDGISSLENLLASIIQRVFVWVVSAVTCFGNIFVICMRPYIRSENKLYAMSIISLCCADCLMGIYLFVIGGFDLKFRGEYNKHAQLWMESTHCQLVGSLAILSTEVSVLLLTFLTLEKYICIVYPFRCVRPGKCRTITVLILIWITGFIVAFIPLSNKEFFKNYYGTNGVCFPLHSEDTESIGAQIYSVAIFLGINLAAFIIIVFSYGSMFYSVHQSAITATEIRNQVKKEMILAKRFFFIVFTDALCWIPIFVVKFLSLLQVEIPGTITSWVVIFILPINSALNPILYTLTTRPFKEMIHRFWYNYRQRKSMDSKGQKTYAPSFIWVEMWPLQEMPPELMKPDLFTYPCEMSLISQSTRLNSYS

[4] = molecular target: RXFP1 D42A, full length (human)
[5] = molecular target: RXFP1 E67A, full length (human)
[6] = molecular target: RXFP1 E67A^ins, full length (human)
[7] = molecular target: RXFP1 F50A^ins, full length (human)
[8] = molecular target: RXFP1 F54A/Y58A, full length (human)
[9] = molecular target: RXFP1 F66A, full length (human)
[10] = molecular target: RXFP1 G45A, full length (human)
[11] = molecular target: RXFP1 K52A, full length (human)
[12] = molecular target: RXFP1 N43A, full length (human)
[13] = molecular target: RXFP1 N44A, full length (human)
[14] = molecular target: RXFP1 Q49A/F50A, full length (human)
[15] = molecular target: RXFP1 S47A/L48A, full length (human)
[16] = molecular target: RXFP1 T61A, full length (human)
[17] = molecular target: RXFP1 W46A, full length (human)
[18] = molecular target: RXFP1 Y57A, full length (human)
[19] = molecular target: RXFP1 Y58A, full length (human)
RXFP1_((1–72)) (human) = molecular target: T3, RXFP1_((1–72)) (human); assay: NMR titration; 2D 1H-15N HSQC; 50 μM 15N-labelled RXFP1(1–72) titrated with 25-500 μM H2 relaxin; 50 mM imidazole, 10 mM CaCl2, pH 6.8, 25 °C; fit of the shifts of Asp51, Ala55 and Thr61
T3 sequence (Q9HBX9 1-72, looked up): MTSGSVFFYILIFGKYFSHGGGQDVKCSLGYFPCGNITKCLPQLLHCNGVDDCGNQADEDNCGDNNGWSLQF

“H2 relaxin: two-chain 6-kDa peptide hormone structurally related to insulin; recombinant human gene-2 H2 relaxin provided by Corthera” was tested, and the “loss in H2 relaxin binding” value (RXFP1 F54A) was “fourfold”.

B1: H2 relaxin (ligand, human)
chain 1: QLYSALANKCCHVGCTKRSLARFC
chain 2: DSWMEEVIKLCGRELVRAQIAICGMSTWS
B1 showed an H2 relaxin-induced cAMP response (pCRE β-galactosidase reporter, HEK293T), pEC50 [1] of 10.8 pEC50, an H2 relaxin-induced cAMP response (pCRE β-galactosidase reporter, HEK293T), pEC50 [2] of 11.4 pEC50 and an H2 relaxin-induced cAMP response (pCRE β-galactosidase reporter, HEK293T), pEC50 [3] of 11.2 pEC50. For the same molecule, the H2 relaxin-induced cAMP response (pCRE β-galactosidase reporter, HEK293T), pEC50 [4] was less than 6 pEC50, the H2 relaxin-induced cAMP response (pCRE β-galactosidase reporter, HEK293T), pEC50 [5] was 11.1 pEC50 and the H2 relaxin-induced cAMP response (pCRE β-galactosidase reporter, HEK293T), pEC50 [6] was 11.3 pEC50. The H2 relaxin-induced cAMP response (pCRE β-galactosidase reporter, HEK293T), pEC50 [7] was 9.41 pEC50, the H2 relaxin-induced cAMP response (pCRE β-galactosidase reporter, HEK293T), pEC50 [8] was 9.87 pEC50 and the H2 relaxin-induced cAMP response (pCRE β-galactosidase reporter, HEK293T), pEC50 [9] was 11.2 pEC50. The H2 relaxin-induced cAMP response (pCRE β-galactosidase reporter, HEK293T), pEC50 [10] was 7.48 pEC50, the H2 relaxin-induced cAMP response (pCRE β-galactosidase reporter, HEK293T), pEC50 [11] was 11.1 pEC50 and the H2 relaxin-induced cAMP response (pCRE β-galactosidase reporter, HEK293T), pEC50 [12] was 9.06 pEC50. The H2 relaxin-induced cAMP response (pCRE β-galactosidase reporter, HEK293T), pEC50 [13] was 11 pEC50, the H2 relaxin-induced cAMP response (pCRE β-galactosidase reporter, HEK293T), pEC50 [14] was 9.17 pEC50 and the H2 relaxin-induced cAMP response (pCRE β-galactosidase reporter, HEK293T), pEC50 [15] was 11.1 pEC50. The H2 relaxin-induced cAMP response (pCRE β-galactosidase reporter, HEK293T), pEC50 [16] was 11.2 pEC50, the H2 relaxin-induced cAMP response (pCRE β-galactosidase reporter, HEK293T), pEC50 [17] was 7.02 pEC50 and the H2 relaxin-induced cAMP response (pCRE β-galactosidase reporter, HEK293T), pEC50 [18] was 10.9 pEC50. It also gave an H2 relaxin-induced cAMP response (pCRE β-galactosidase reporter, HEK293T), pEC50 [19] of 10.9 pEC50 and a Kd (RXFP1_((1–72)) (human)) of 200 µM.
